Measurements reported in patent US20220040319A1 (Regeneron, published 2022).
Like-named read-outs stand apart in the source and are kept apart here.

What was measured:
[1] = target: T1, hMet.mmh (human MET extracellular domain with C-terminal myc-myc-hexahistidine tag) (human, UniProt P08581 309-914; P08581 27-307); experiment: SPR 37C, antibody captured
T1 construct: soluble monomeric MET; also called monomeric human MET
Experimental: (§1) The anti-Met antibodies tested in this example were bivalent monospecific binders of MET.
(§2) Kinetic association (kₐ) and dissociation (kd) rate constants were determined by fitting the real-time sensorgrams to a 1:1 binding model using Scrubber 2.0c curve fitting software. Binding dissociation equilibrium constant (KD) and dissociative half-life (t1/2) were calculated from the kinetic rate constants as: […]

[2] = target: T2, hMET.mFc (dimeric human MET) (human, UniProt P08581 27-307); experiment: SPR 37C, antibody captured
T2 construct: soluble dimeric MET protein
Experimental: as §1, §2

[3] = target: T1, hMet.mmh (human MET extracellular …); experiment: SPR 37C, antibody captured; remark: listed apart in the source
Experimental: Kinetic association (kₐ) and dissociation (kd) rate constants were determined as described in Example 3.

human MET on cells [4] = target: T3, human MET on cells (human, UniProt P08581 25-1390); experiment: cell-based or functional assay
human MET on cells [5] = target: T3, human MET on cells; experiment: cell-based or functional assay; remark: listed apart in the source
human MET on cells [6] = target: T3, human MET on cells; experiment: cell-based or functional assay; remark: listed apart in the source
[7] = target: T4, human MET (exon14 skip mutation) on NCI-H596 cells (human, UniProt P08581 25-1390); experiment: cell-based or functional assay
[8] = target: T4, human MET (exon14 skip mutation) on …; experiment: cell-based or functional assay; remark: listed apart in the source
human MET on cells [9] = target: T3, human MET on cells; experiment: cell-based or functional assay; remark: listed apart in the source
human MET on cells [10] = target: T3, human MET on cells; experiment: cell-based or functional assay; remark: listed apart in the source
human MET on cells [11] = target: T3, human MET on cells; experiment: cell-based or functional assay; remark: listed apart in the source

T3 sequence (P08581 25-1390 limits assumed, form in doubt): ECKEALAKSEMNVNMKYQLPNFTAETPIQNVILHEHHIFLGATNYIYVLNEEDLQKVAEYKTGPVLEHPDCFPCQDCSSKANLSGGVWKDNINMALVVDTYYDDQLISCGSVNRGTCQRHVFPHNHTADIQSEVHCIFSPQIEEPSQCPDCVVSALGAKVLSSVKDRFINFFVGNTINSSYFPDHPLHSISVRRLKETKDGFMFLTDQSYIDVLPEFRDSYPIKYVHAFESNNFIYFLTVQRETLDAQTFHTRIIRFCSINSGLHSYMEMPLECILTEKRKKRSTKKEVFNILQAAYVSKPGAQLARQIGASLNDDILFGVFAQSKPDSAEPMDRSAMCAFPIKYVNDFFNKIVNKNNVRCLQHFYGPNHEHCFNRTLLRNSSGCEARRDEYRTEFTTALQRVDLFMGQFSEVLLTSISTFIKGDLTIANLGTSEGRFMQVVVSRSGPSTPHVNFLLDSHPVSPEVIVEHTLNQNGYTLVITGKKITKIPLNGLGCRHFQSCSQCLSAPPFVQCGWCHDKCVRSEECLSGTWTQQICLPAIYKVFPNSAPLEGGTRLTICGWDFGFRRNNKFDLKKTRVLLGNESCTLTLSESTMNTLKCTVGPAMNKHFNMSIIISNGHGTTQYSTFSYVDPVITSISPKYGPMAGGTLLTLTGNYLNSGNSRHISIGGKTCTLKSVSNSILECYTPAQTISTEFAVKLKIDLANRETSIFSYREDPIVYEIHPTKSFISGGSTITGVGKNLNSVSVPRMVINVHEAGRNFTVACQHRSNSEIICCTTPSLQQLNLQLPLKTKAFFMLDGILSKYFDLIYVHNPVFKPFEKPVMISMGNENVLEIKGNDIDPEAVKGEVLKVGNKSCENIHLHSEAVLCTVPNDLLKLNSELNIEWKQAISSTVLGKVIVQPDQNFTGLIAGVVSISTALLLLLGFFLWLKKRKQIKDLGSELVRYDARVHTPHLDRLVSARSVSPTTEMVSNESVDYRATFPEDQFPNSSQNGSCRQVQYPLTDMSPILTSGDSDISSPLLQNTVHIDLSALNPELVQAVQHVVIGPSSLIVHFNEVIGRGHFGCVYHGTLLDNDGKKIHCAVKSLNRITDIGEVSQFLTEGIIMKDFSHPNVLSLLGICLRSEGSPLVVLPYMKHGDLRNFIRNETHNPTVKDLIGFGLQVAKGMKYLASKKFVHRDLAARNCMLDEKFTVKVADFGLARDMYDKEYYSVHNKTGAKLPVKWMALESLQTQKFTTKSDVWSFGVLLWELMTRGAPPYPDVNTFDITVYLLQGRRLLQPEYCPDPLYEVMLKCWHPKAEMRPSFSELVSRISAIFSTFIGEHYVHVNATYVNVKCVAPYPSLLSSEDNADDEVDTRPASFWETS
T1 sequence (P08581 other isoform, or with tags, fused parts or gaps limits assumed, chain 1 of 2): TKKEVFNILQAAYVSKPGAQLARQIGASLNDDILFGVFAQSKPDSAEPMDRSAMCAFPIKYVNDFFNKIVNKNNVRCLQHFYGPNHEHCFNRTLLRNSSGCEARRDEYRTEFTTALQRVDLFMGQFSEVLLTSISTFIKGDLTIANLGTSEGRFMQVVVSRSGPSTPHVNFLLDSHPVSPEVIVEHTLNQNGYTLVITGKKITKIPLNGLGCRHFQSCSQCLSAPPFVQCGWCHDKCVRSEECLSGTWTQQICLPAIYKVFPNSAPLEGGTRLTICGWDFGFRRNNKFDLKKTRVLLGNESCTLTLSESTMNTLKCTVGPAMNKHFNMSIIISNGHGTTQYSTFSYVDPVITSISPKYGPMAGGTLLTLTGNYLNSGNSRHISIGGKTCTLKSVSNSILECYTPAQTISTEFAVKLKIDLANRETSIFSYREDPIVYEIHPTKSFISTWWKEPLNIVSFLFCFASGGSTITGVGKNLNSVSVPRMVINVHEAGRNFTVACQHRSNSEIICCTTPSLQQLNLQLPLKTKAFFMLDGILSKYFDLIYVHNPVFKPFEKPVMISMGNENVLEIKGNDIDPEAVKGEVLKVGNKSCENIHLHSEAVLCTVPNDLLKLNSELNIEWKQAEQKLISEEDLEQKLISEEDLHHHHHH
T1 sequence (P08581 27-307 limits assumed, chain 2 of 2): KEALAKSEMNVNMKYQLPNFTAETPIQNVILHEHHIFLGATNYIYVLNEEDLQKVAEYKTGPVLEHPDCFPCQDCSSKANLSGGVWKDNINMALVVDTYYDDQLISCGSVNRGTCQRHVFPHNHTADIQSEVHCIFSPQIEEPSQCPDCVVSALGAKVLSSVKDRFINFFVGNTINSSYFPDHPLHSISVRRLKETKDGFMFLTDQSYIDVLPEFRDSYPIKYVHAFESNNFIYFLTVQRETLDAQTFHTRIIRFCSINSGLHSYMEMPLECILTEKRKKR
T2 sequence (P08581 other isoform, or with tags, fused parts or gaps limits assumed, chain 1 of 2): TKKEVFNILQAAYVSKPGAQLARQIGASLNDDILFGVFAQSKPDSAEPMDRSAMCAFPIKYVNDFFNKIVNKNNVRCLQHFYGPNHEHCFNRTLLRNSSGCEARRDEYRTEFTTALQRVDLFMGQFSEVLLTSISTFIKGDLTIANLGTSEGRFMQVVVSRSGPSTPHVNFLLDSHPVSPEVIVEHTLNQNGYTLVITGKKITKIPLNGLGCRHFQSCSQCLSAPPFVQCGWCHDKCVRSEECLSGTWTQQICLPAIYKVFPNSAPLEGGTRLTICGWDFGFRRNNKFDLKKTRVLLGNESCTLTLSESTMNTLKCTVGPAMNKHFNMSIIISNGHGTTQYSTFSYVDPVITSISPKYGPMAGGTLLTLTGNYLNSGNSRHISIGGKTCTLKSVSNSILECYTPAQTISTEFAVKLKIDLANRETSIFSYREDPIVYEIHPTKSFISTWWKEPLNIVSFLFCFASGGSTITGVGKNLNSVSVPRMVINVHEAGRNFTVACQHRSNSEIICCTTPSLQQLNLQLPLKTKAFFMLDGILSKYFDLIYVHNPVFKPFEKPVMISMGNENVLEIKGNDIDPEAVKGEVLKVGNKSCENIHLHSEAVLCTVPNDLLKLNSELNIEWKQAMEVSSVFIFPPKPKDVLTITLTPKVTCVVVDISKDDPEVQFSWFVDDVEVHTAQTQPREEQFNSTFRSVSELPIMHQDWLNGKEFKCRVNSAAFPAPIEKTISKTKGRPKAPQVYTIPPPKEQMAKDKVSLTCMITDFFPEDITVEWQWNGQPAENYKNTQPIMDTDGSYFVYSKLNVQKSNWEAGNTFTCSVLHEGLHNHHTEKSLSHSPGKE
T2 sequence (P08581 27-307 limits assumed, chain 2 of 2): as the sequence (P08581 27-307 limits assumed, chain 2 of 2) above
T4 sequence (P08581 25-1390, change not shown): as the sequence (P08581 25-1390 limits assumed, form in doubt) above

B1: H4H13306P2 (antibody, human IgG4, V domains shown)
VH: EVQLVESGGGLVQPGTSLRLSCAASGFTFDDYAMHWVRQAPGKGLEWVSGITWNSYNIDYADSVKGRFTISRDNAKNSLYLQMNSLRAEDTALYYCAKDDDYSNYVYFDYWGQGTLVTVSS
VL: not shown
notes: human IgG4 Fc (H4H), bivalent monospecific; also called parental antibody 1; M1
Kd [1]: 109 nM
T½ [1]: 42 s
Kd [2]: 2.15 nM
T½ [2]: 264 s
T½ [3]: 42 s

B2: H4H14641D (bispecific antibody, human IgG4, V domains shown)
VH 1: QVQLVESGGGVVQPGRSLRLSCSASGFSFSHFGMHWVRQVPGGGLEWVTSIWFDGSNRYYADSLKGRFTISRDNSKNTLYLEMNSLRAEDTAVYYCVREGILGTTNPYDVFDVWGQGTMVTVSS
VH 2: EVQLVESGGGLVQPGGSLRLSCAASGFIVTTNYMTWLRQAPGKGLEWVSLIYSSGHTYYADSVKGRFTISRHNSKNTLYLQMDSLRAEDTAVYYCASAFAADVFDIWGQGTMVTVSS
VL: not shown
Relative MET Level, SNU5 cells, 18 hrs (human MET on cells [4]): 0.31 relative to control (hFc)
% Inhibition, HEK293/SRE-Luc Blocking Activity (HGF, 1 h mAb pre-bind) (human MET on cells [5]): 75%
EC50, Ligand (HGF)-Independent HEK293/SRE-Luc Activation (human MET on cells [5]): 84 nM
Fold Response, Ligand (HGF)-Independent HEK293/SRE-Luc Activation (human MET on cells [5]): 4.4 fold
IC50, HEK293/SRE-Luc Blocking Activity (HGF, 1 h mAb pre-bind) (human MET on cells [5]): 2.7 nM

B3: H4H14640D (bispecific antibody, human IgG4, V domains shown)
VH 1: QVQLVQSGTEVKEPGASVKVSCKASGYSFTTYGISWLRQAPGQGLEWMGWISTYNGDTISAQMLQDRVTLTADTSTRTAYMELRSLRSDDTAVYYCARGHEYDSLVYSYWGQGTLVTVSS
VH 2: EVQLVESGGGLVQPGGSLRLSCAASGFIVTTNYMTWLRQAPGKGLEWVSLIYSSGHTYYADSVKGRFTISRHNSKNTLYLQMDSLRAEDTAVYYCASAFAADVFDIWGQGTMVTVSS
VL: not shown
Relative MET Level, SNU5 cells, 18 hrs (human MET on cells [4]): 0.18 relative to control (hFc)
% Inhibition, HEK293/SRE-Luc Blocking Activity (HGF, 1 h mAb pre-bind) (human MET on cells [5]): 89%
EC50, Ligand (HGF)-Independent HEK293/SRE-Luc Activation (human MET on cells [5]): 6.8 nM
Fold Response, Ligand (HGF)-Independent HEK293/SRE-Luc Activation (human MET on cells [5]): 2.5 fold
IC50, HEK293/SRE-Luc Blocking Activity (HGF, 1 h mAb pre-bind) (human MET on cells [5]): 0.52 nM

B4: H4H14636D (bispecific antibody, human IgG4, V domains shown)
VH 1: EVQLVESGGGLVQPGGSLRLSCAASGFIFSNYEMNWVRQAPGKGLEWISYITSSGNMKYYADSVKGRFTISRDNDKNSLYLQMSSLRVEDTAVYYCVRGGRFLEWLTYYVMVVWGQGTTVTVSS
VH 2: EVQLVESGGGLVQPGGSLRLSCAASGFIVTTNYMTWLRQAPGKGLEWVSLIYSSGHTYYADSVKGRFTISRHNSKNTLYLQMDSLRAEDTAVYYCASAFAADVFDIWGQGTMVTVSS
VL: not shown
Relative MET Level, SNU5 cells, 18 hrs (human MET on cells [4]): 0.5 relative to control (hFc)
% Inhibition, HEK293/SRE-Luc Blocking Activity (HGF, 1 h mAb pre-bind) (human MET on cells [5]): 74%
EC50, Ligand (HGF)-Independent HEK293/SRE-Luc Activation (human MET on cells [5]): 0.28 nM
Fold Response, Ligand (HGF)-Independent HEK293/SRE-Luc Activation (human MET on cells [5]): 2.8 fold

B5: H4H14639D (bispecific antibody, human IgG4, V domains shown)
VH 1: EVQLVESGGGLVQPGTSLRLSCAASGFTFDDYAMHWVRQAPGKGLEWVSGITWNSYNIDYADSVKGRFTISRDNAKNSLYLQMNSLRAEDTALYYCAKDDDYSNYVYFDYWGQGTLVTVSS
VH 2: EVQLVESGGGLVQPGGSLRLSCAASGFIVTTNYMTWLRQAPGKGLEWVSLIYSSGHTYYADSVKGRFTISRHNSKNTLYLQMDSLRAEDTAVYYCASAFAADVFDIWGQGTMVTVSS
VL: not shown
notes: MET x MET bispecific, human IgG4; also called No. 122; MET×MET bispecific antibody
Relative Cell Growth (n = 3), Hs746T cells, 5 µg/ml, 5 days (human MET on cells [6]): 0.647 normalized to control
Relative Cell Growth (n = 3), NCI-H596 cells in soft agar, 5 µg/ml, two weeks [7]: 1.07 normalized to control
Relative MET Level, NCI-H596 cells, 18 h [8]: 0.24 relative to control (hFc)
IC50, 6-day in vitro cytotoxicity, A549 (human MET on cells [9]): 0.17 nM
IC50, 6-day in vitro cytotoxicity, EBC-1 (human MET on cells [9]): 0.37 nM
IC50, 6-day in vitro cytotoxicity, Hs746t (human MET on cells [9]): 0.44 nM
Max % Kill, 6-day in vitro cytotoxicity, A549 (human MET on cells [9]): 29%
Max % Kill, 6-day in vitro cytotoxicity, EBC-1 (human MET on cells [9]): 66%
Max % Kill, 6-day in vitro cytotoxicity, Hs746t (human MET on cells [9]): 35%
Relative Cell Growth (n = 3), EBC-1 cells, 0.1 µg/mL H4H14639D (human MET on cells [10]): 0.397 relative to control
Relative Cell Growth (n = 3), EBC-1 cells, 1 µg/mL H4H14639D (human MET on cells [10]): 0.462 relative to control
Relative Cell Growth (n = 3), SNU5 cells, 5 µg/ml, 5 days (human MET on cells [11]): 0.271 normalized to control
